Experimental findings from patent US6699869 are described below.

In the series the test system is (D)FPR-PNA.

Regarding bovine thrombin (from Sigma), the “Kcat/KM of substrate hydrolysis” value is recorded as “thrombin: Kcat/KM=2.20×10^7 M^-1 S^-1”.
